Data: the nanobody polyreactivity screen of Harvey et al. (2022)

Assay: yeast display, Sf9 membrane polyspecificity reagent, FACS + sequencing; frameworks hold sequencing errors
Summary of the method: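 Galactose induction of a Saccharomyces cerevisiae BJ5465 synthetic nanobody display library ran 36–48 hours. The cells were then stained for 1 hour at 4 °C with 10% biotinylated, detergent-solubilized Sf9 membrane reagent, pulled down on streptavidin microbeads and FACS-sorted into low and high (top ~1%) gates on expression and reagent-binding fluorescence. Labels for polyreactivity follow the gate of origin.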

Sequence	polyreactivity (PSR sort gate)
QVQLVESGGALVQAGGSLRLSSAASGITFSRYAMGWYRQAPGKERELVARISSSGGSTNYADSVKGRFTISRDNAKNTVYLQMNSLKPEDTAVYYCAGATRGKVARRVTFDYWGQGTQVTVSS	high polyreactivity
QVQLVESGGALVQAGGSLRLTCAASGRIYTRYAMGWNRKATGKERELVAVITRSGGSTYYADSVKGRFTISRDNGKNTVYLQMNSLNPEVTAVYDCAAKYYGEMYYWGQGTQVTVSS	low polyreactivity
QVQLVESGGALVQAGGSLRLTCAYSGSTSYNNAMGWYRHAPGKERELYASLYMSAGSTYYADSVKGRFKISRDNEKNTVYLQMNSLKPEDTAVYYCAAESVAILGLVDPKGYGYWGQGTQVTVSS	low polyreactivity
QVQLVESGGALVQEAGSLRLRCAASGSIFDYKGMRWSRPAPGKERELVAAITSSGGSTYYADSVKGRFSISRDNAKNTDYLQMNSLIPEVSAFYYCAVDILYFPASYATQPVDYWGQGTQVTVSS	low polyreactivity
QVQLVESGGCIVQAGGSLRLSCAASGLNLDGYAMGWYRQAPGKERELVAAITRSGGRTYYADSVKGRFTISRDNANNTVYLQMNSLKPEDTAVYYCAALGWSVRYRYDYWGQGTQVTVSS	high polyreactivity
QVQLVESGGCIVQAGGSLRLSCAASGNIFAYNGKVWYRQAPGKERELVAAIRGSGTRTYYAESVKGRFTISRDNAKNTVYLHMNSLKPEDTAVYYCSARYFGTARTNYGYWGQGTQVTVSS	high polyreactivity
QVQLVESGGCLFQAGGSLRLSCAASGNIFLYYAMGWYRQAPGKERELVADIDSSGASTYYADSVKGRFTISRDNAKNTGYLQMNSLIPEDTAVYDCDKDSNRYSYYSPYDSWGQGTQVTVSS	low polyreactivity
QVQLVESGGCLVPAGGSLRLSCAASGFIIDWYDMAWYRQAPGKERELVAAITRSAGRTYYADSVKGRFTISRDIAKITVYLQMNSLKPEDTAVYYCAARSSSAGGGDGYWGQGTQVTLSS	high polyreactivity
QVQLVESGGCLVPAGGSLRLSGAASGSTYHFYAMGWYRHAQGKERELVASITSRGGNTHYADSVKGRFRISRDNAKNTVYFQMNSLKPEVTAVYSCAASGGWYGTYDYWGQGTQVTVSS	low polyreactivity
QVQLVESGGCLVQAGCSLRLSCAASGSTLWWYDMGWYRQAPGKERELVAAINSGGSTNYADSVKGRFTISRDNAKNTVYLQMNSLKAEDTAVYYCNTDGEVTYDYWGQGTQVTVSS	low polyreactivity
QVQLVESGGCLVQAGGRLRLSCAASGRIFHDNGMGWYRQAPGKERELVAAISRGGSTYYADSVKGRFTISRDNAKNTVYLQMNSRKPEDTAVYYCNVDSFRYRHTGYCDTRYGYWGQGTQVTVSS	high polyreactivity
QVQLVESGGCLVQAGGRLRLSCAASGSTFGRNAMGWYRQAPGKERELVAAISTSDGRTYYADSVKGRFTISRDNAKNTVYLQMNSLKPEDTAVYYCAADGETLPPRILGESEGDYWGQGTQVTVSS	low polyreactivity
QVQLVESGGCLVQAGGSLRLICAASGFIFTPYAMGWYRQAPGKERELVAAIRNSDGSTYYADSVKRRFTISRDTAKHSVYLQMNSLKPEDTAVFYCAKRYRGEPGGTYGYWGQGTQVNVSS	high polyreactivity
QVQLVESGGCLVQAGGSLRLICAASGLIFTGNAMGWYRQAPGKERELVAAINYSGGSTYYADSVKWRFTISRDNAKNTVSLQLNSLKAEDTAVYYCAAGGKSRSYYWGQGTQVTVSS	high polyreactivity
QVQLVESGGCLVQAGGSLRLRCAASGFMFGSYAMGWYRQAPGKERELVAAISRRGSSTSYADSVKGRFTISRDNAKNTVYLQMNSLKPEDTAVYFCAPPYLKKWGYYFDGNYWGQGTQVTVSS	high polyreactivity
QVQLVESGGCLVQAGGSLRLSCAASGFIFSEYAMGWYRQAPGKERELVVAIDVGGGSTYYADSVKGRFTISRDNAKNTVYLQMNSLKPEDTAVYYCAATQYGYWVPYQGFDYWGLGTQVTVSS	low polyreactivity
QVQLVESGGCLVQAGGSLRLSCAASGFIISSYVMGWYSQEPGKERELVAAITSGTSTYYADSVKGRFTFSRDNAKNTVYLQMNSLKPEDTAVYYCTADSYHTYYYWYDYWGQGTQVTVSS	low polyreactivity
QVQLVESGGCLVQAGGSLRLSCAASGFTFLDYVMGWYRPAPGKERELVAVITVSGGSTYYADSVKGRFTISRDNAKNTVYLQMTSLKPEDTAVYYCNAYTIEYPFGDSYWYNYDYWGQGTQVTVSS	high polyreactivity
QVQLVESGGCLVQAGGSLRLSCAASGFTFRWYTMGWYRQAPGKERELVAAITGSGCTTYYADSVKGRFTISRDNAKNTVYLQMNSVKPEDTAVYYCAAQYFPSRGWSKGYDYWGHGTQVTVSS	high polyreactivity
QVQLVESGGCLVQAGGSLRLSCAASGFTFYAYTMGWYRQAPGKERELVAAITKTGSRTYYADSVKGRFTISRDNAKNTVYLQMNSLKPEDTAVYYCAAASYIRVKGISRYDSWGQGTQVTVSS	high polyreactivity
QVQLVESGGCLVQAGGSLRLSCAASGLTFADNAMGWYRQAPGKERELVATISYSGGSTYYADSVKGRFTISRDNAKNTVYLQMNSLKPEDTAVYYCAADGNSTGVYLDGGEGFAYDYWGQGSQVTVSS	low polyreactivity
QVQLVESGGCLVQAGGSLRLSCAASGLTFPKYSMGWYRQAPGKERELVARISYSGASTYYADSVKGRFTISRDNEKNTVYLHMIILKPEDTAVYYCDARIYRVYYVNFAPYYYWGQGTQVTVSS	high polyreactivity

Sequence	polyreactivity (PSR sort gate)
QVQLVESGGCLVQAGGSLRLSCAASGLTIAYYAMGWYRQAPGKERDLVAAITSSGTSTYYADSVKGRFTISRDNAKNTVYLQMNSLKPEDTAVYYCNKYPYFVYGDYGYWGQGTQVTVSS	high polyreactivity
QVQLVESGGCLVQAGGSLRLSCAASGRIFGLYAMGWYRQAPGKEREFVAAISSSGSDTYYADSVKGRFTISRDNAKNTVYLQINSLKPDYTAVYYCAKRRLYLCFDYNSSAYEYGYWGQGTQVTVSS	low polyreactivity
QVQLVESGGCLVQAGGSLRLSCAASGRIFGYYAMGWYRQEPWKERELVAAISYSGGTTYYADSVKGRFTISRDNAKNTVYLQMNSLKPEDTAVYYCAAESYTYYADYGYGYWGQGTQVSVSS	high polyreactivity
QVQLVESGGCLVQAGGSLRLSCAASGRIFIRYTMGWYRQAPGKERELVAAISKSGGRTYYADSVKGRFTISRDNAKNTDYLQMNSLKPEYTAVYDCNKDTDSQYSWGQGTQVTVSS	high polyreactivity
QVQLVESGGCLVQAGGSLRLSCAASGRIFNYNAMGWYRQAPGKARELVAVITSGDSTNYADSVKGRFTISRDNAKNNVYLQMNSLKPEDTAVYYCAAEYYSIRYGPHSIEVYGMDYWGQGTQVTVSS	low polyreactivity
QVQLVESGGCLVQAGGSLRLSCAASGRIFPGYAMVWYRQAPGKERELVAAISASGGSTYYADSVKGRFTISRDNAKNSVYFQIISLKPEDTAVYYCNAVYRLIRFDYWGQGSQVTVSS	high polyreactivity
QVQLVESGGCLVQAGGSLRLSCAASGRIFRRYAMGWYRQAPGKERELVASITCGGSSTSYADSVKGRFTISRDNAKNTVYLQMNSLKPEDTAVYYCAKGGVFGTYLNEYDYCGQGTQVTVSS	low polyreactivity
QVQLVESGGCLVQAGGSLRLSCAASGRNFGTYAMGWYRQATGKERELVAASTRGGTTYYADSVKGRFTISRDNAKNTVYLQMNSLTQEDTAVYYCATGPAIRYDYWGQGTQVTVSS	low polyreactivity
QVQLVESGGCLVQAGGSLRLSCAASGRTFYRYAMGWSRQAPGKERELVATISSRGTSTYYADSVKGRFTISRDNAKNTVYLQMNSLKPEDTAVYYCAVRGYAAGRHGYAYWGQGTQVTVSS	high polyreactivity
QVQLVESGGCLVQAGGSLRLSCAASGRTIRENVMGWYIQAPGKERELVAAITGNDGTTYYADSVKGRFTISRDNAKNTVNLQMNSLKPEDTAVYYCASERGDSAYRKYDYWGQGTQVTVSS	low polyreactivity
QVQLVESGGCLVQAGGSLRLSCAASGSIFDSNPKGWYRQAPGKERELVAAITGSGTSTYYADSVKGRFTISRDNAKNTVYLQMNSLKPEDTALNYCAAAPEYLTDHDYWGQGTQVTVSS	low polyreactivity
QVQLVESGGCLVQAGGSLRLSCAASGSIFGGNAMGWSRQAPGKEREFVAAITVSDGSTYYADSVKGRFTISRDNAKKTVYLQMNSLKPEDTAVYYCAAGGFYYPHYDYWGQGTQVTVSS	low polyreactivity
QVQLVESGGCLVQAGGSLRLSCAASGSIFQPYAMGWYRQEPGKEREIVAAISQSGTSTYYADSVNGRFTISRDNAKNTVYLQMNSLKPEVTAVYYCAAQCWHLDSQWQLYNYFYWGQGTQVTVSS	high polyreactivity
QVQLVESGGCLVQAGGSLRLSCAASGSIFYWYAMGWFRQAPGKARELVAAITWSGVSTYYADSVKGRFTISRDNAKNTVDLQMNSLKREDTAVYYCAALVFGYSVFPYSYWGQGTQVTVSS	high polyreactivity
QVQLVESGGCLVQAGGSLRLSCAASGSIIWYYAMGWYRQAPGKERELVAAISTGGSTYYADSVKGRFTISRDNAKNTVYLQMNSLKPEDTAVYYCAAGAFGQILNYWGQGTQVTVSS	high polyreactivity
QVQLVESGGCLVQAGGSLRLSCAASGSTFAEYVMGWDRQAPGKERELVAAISSGTSTYYADSVKGRFTISRDNAKNTVYLQMNSLKPEDTAVYYCNADLYHNWYKPEYDYCGQGTQVTVSS	low polyreactivity
QVQLVESGGCLVQAGGSLRLSCAASGSTFGGNAMGWYRQAPGKERELVAAITIGGRTNYADSVKGRFTISRDNAKNTVYLQMNSLKPEDTAVYYCAKDRDQWQDYWGQGSQVTVSS	low polyreactivity
QVQLVESGGCLVQAGGSLRLSCAASGSTFIINAMGWYIQAPGKERVLVAANTSTGGTNYADSVKGRFTISRDNAKNTVYLQMNSLKPEATAVYYCAARYYQDGYDYWGQGTQGTVSS	high polyreactivity
QVQLVESGGCLVQAGGSLRLSCAASGSTFKIYAMGWYRQAPWKERELVAAISWRGGRTYYADSVKGRFTISRDNAKNTVYLQMNSLKPEDTAVYYCDKGTRQGLEFWGQGTQVTVSS	high polyreactivity
QVQLVESGGCLVQAGGSLRLSCAASGSTFLKYTMGWYRQAPGKERELVAAITASGGRTYYADSVKGRFTISRDNAKITVYLQMNSLKPEDTAVYYCAARGFDRYYWGQGTQVTVSS	high polyreactivity
QVQLVESGGCLVQAGGSLRLSCAASGSTFLSYAMGWYRQAPGKERELVAAISYSAGSTYYADSVKGRFTISRDNAKNTVYLQMNSLKPEDTAVYYCAAYDYSERRYDYWGQGTQVTVSS	low polyreactivity
